Entries after “also recorded” stand apart in the source; their conditions may differ. Square brackets hold non-standard residues; d marks the D form. Ends that are not written are not given here. fluorescein = N-terminal fluorescein label; pS = N[C@@H](COP(=O)(O)O)C(=O)O
T1: human 14-3-3 isoform σ (Homo sapiens, UniProt P31947)
T1 construct: MBP (cleaved yes); made in house; host or cells: E. coli BL21DE3
T1 sequence (P31947 1-248): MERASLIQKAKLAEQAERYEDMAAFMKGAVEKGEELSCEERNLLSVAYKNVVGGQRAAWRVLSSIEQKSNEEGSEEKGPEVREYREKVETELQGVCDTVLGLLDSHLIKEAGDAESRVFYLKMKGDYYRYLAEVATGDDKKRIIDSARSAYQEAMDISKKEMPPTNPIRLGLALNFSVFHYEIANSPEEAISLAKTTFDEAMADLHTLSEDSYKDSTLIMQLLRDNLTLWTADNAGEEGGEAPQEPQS

T2: human 14-3-3 isoform ϵ (Homo sapiens, UniProt P62258)
T2 construct: MBP (cleaved yes); made in house; host or cells: E. coli BL21DE3
T2 sequence (P62258 1-255): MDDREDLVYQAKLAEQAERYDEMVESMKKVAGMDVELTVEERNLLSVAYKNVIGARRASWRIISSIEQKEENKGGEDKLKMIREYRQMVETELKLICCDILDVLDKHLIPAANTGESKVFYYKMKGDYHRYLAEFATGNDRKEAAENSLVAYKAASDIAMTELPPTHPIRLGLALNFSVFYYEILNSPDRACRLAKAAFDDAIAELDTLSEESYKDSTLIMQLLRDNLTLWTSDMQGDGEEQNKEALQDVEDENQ

T3: human 14-3-3γ (Homo sapiens, UniProt P61981)
T3 construct: MBP (cleaved yes); made in house; host or cells: E. coli BL21DE3
T3 sequence (P61981 1-247): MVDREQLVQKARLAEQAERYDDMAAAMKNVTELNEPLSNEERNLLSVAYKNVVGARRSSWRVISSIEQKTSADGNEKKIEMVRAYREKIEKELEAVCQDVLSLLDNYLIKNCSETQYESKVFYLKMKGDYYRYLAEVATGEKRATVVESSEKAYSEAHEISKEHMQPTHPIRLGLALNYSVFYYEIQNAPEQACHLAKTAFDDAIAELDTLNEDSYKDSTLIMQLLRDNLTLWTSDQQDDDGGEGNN

T4: human 14-3-3 isoform β (recombinant, MBP tag removed) (human, UniProt P31946 1-246)
T4 construct: 14-3-3 beta, human; Expressed from pMAL2CX plasmids; also called 14-3-3β; source: E. coli BL21DE3, purified (maltose-agarose, Factor Xa, anion exchange)
T4 sequence (looked up): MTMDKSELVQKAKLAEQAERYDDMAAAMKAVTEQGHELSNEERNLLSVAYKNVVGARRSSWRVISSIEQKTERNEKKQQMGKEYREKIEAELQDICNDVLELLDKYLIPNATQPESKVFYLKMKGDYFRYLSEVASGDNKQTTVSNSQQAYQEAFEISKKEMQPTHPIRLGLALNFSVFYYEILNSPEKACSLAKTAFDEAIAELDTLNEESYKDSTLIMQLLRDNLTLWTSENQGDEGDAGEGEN

T5: human 14-3-3 isoform ε (recombinant, MBP tag removed) (human, UniProt P62258 1-255)
T5 construct: 14-3-3 epsilon, human; Expressed from pMAL2CX plasmids; also called 14-3-3ε; source: E. coli BL21DE3, purified (maltose-agarose, Factor Xa, anion exchange)
T5 sequence (looked up): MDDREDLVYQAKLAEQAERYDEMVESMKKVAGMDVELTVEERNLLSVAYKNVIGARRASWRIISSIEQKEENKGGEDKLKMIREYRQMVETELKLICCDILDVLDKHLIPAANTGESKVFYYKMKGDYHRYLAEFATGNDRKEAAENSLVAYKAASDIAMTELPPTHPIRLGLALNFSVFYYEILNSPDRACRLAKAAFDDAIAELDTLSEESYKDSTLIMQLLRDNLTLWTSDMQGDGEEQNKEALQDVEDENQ

T6: human 14-3-3 isoform ζ (recombinant, MBP tag removed) (human, UniProt P63104 1-245)
T6 construct: 14-3-3 zeta, human; Expressed from pMAL2CX plasmids; also called 14-3-3ζ; source: E. coli BL21DE3, purified (maltose-agarose, Factor Xa, anion exchange)
T6 sequence (looked up): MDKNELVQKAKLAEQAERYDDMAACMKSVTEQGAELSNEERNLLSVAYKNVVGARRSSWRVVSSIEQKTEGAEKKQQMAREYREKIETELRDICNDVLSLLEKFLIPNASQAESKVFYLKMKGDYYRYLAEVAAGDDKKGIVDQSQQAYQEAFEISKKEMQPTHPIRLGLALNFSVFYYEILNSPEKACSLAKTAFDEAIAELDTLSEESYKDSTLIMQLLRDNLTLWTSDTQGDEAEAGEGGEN

T7: human 14-3-3 isoform η (recombinant, MBP tag removed) (human, UniProt Q04917 1-246)
T7 construct: 14-3-3 eta, human; Expressed from pMAL2CX plasmids; also called 14-3-3η; source: E. coli BL21DE3, purified (maltose-agarose, Factor Xa, anion exchange)
T7 sequence (looked up): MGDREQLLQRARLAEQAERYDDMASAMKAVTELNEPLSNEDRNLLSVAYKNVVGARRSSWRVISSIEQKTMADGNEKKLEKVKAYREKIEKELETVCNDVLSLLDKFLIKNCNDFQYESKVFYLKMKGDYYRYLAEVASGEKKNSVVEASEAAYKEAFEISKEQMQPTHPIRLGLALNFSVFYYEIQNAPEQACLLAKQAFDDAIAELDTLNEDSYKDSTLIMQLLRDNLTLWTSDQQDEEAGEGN

T8: human 14-3-3 isoform θ (recombinant, MBP tag removed) (human, UniProt P27348 1-245)
T8 construct: 14-3-3 theta, human; Expressed from pMAL2CX plasmids; also called 14-3-3θ; source: E. coli BL21DE3, purified (maltose-agarose, Factor Xa, anion exchange)
T8 sequence (looked up): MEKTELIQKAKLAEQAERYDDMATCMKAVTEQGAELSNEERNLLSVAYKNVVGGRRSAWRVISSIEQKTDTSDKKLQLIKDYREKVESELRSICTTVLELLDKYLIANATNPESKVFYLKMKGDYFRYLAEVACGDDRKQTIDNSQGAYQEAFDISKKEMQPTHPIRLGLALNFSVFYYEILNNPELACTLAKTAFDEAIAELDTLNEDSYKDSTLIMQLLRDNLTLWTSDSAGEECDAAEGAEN

T9: human 14-3-3 isoform σ (recombinant, MBP tag removed) (human, UniProt P31947 1-248)
T9 construct: 14-3-3 sigma, human; Expressed from pMAL2CX plasmids; also called 14-3-3σ; source: E. coli BL21DE3, purified (maltose-agarose, Factor Xa, anion exchange)
T9 sequence (looked up): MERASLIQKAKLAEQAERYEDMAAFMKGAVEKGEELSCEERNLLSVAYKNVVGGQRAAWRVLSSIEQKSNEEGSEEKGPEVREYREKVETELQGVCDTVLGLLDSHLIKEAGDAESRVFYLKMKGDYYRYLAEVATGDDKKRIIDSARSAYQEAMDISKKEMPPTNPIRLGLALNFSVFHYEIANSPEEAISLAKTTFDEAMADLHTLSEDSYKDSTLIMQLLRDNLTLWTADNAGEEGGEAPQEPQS


Experiments:
[1] = target: T10, human 14-3-3 isoform η (Homo sapiens, UniProt Q04917); assay: Fluorescence polarization (FP) direct binding assay; conditions: fluorescein-labeled peptide 1 nM
T10 construct: MBP (cleaved yes); made in house; host or cells: E. coli BL21DE3
Procedure: (§1) Human MBP-tagged 14-3-3 isoforms were expressed from pMAL2CX plasmids [[Kilisch et al. (2016)], [Yuan et al. (2003)]] in E. coli BL21DE3 cells. After induction with […] isopropyl-β-D-thiogalactoside, the protein was expressed for 4 h at room temperature. Cells were lysed in MBP-lysis buffer [50 mM Tris–HCl pH 7.5, 150 mM NaCl, 5 mM MgCl2, 1 mM PMSF, 1× cOmplete Protease Inhibitor EDTA-free (Roche)] using a French Pressure cell (FRENCH Press, Thermo, United States). Following centrifugation at 42,000 × g and 4°C for 30 min, the supernatant was transferred to a Maltose-agarose column (1.5 ml bed volume; New England Biolabs GmbH, Germany). Captured proteins were washed six times with 10 ml wash buffer (50 mM Tris–HCl pH 7.5, 150 mM NaCl, 5 mM MgCl2) prior to elution using wash buffer including 15 mM D-maltose. To remove the MBP tag, fusion proteins were incubated with Factor Xa (New England Biolabs GmbH, Germany), at a final concentration of 0.4 μg per 1 mg fusion protein for 24 h at RT following another 72 h at 4°C. Anion exchange chromatography was finally applied to separate residual MBP using a buffer gradient from 20 mM Tris pH 8 to 20 mM Tris pH 8 with 1 M NaCl. For this a RESOURCE Q column (GE Healthcare, United Kingdom) was utilized, employing an ÄKTApurifier (GE Healthcare, United Kingdom) or an NGC Quest Chromatography System (Bio-Rad Laboratories GmbH, Germany).
(§2) FP was used to determine binding affinities of different phosphorylated and non-phosphorylated peptides derived from LRRK2 sequences (Peps4LS GmbH, Germany) toward human 14-3-3 isoforms. Direct binding assays were performed and evaluated as previously described ([Muda et al., 2014]; [Manschwetus et al., 2019]). Briefly, both dilution series of 14-3-3 isoforms ranging from final concentrations of at least 5 μM down to picomolar concentrations and dilutions of the respective fluorescein-labeled peptide (final conc. 1 nM) were prepared in FP buffer (20 mM MOPS pH 7, 150 mM NaCl, 0.005% CHAPS). Subsequently, samples were mixed in 384-well microtiter plates as duplicates (BRAND plates, pureGrade, black, BRAND GmbH & Co. KG, Germany) in a 1:1 ratio and measured using a CLARIOstar plate reader (BMG LABTECH, Germany). Two protein preparations were utilized for at least two independent replications for all measurements while high affinity binding peptides were particularly measured with a minimum of three independent replications for statistical evaluation. Data was analyzed with GraphPad Prism 6.0 (GraphPad Software, San Diego, CA, United States) by plotting obtained FP signals (mPol) against the logarithmic 14-3-3 protein concentrations. Data points represent means ± standard error of mean (SEM) of duplicates. “Ctrl.” indicates the FP signal of fluorescein-labeled peptides without 14-3-3 protein. Sigmoidal dose-response fitting was performed to define KD-values.

[2] = target: T11, human 14-3-3 isoform θ (Homo sapiens, UniProt P27348); assay: as above; conditions: fluorescein-labeled peptide 1 nM
T11 construct: MBP (cleaved yes); made in house; host or cells: E. coli BL21DE3
Procedure: as §1, §2

[3] = target: T1, human 14-3-3 isoform σ; assay: as above; conditions: fluorescein-labeled peptide 1 nM
Procedure: as §1, §2

[4] = target: T2, human 14-3-3 isoform ϵ; assay: as above; conditions: fluorescein-labeled peptide 1 nM
Procedure: as §1, §2

[5] = target: T3, human 14-3-3γ; assay: as above; conditions: dilution series of 14-3-3γ (at least 5 μM down to pM), fluorescein-labeled peptide 1 nM, FP buffer pH 7
Procedure: as §1, §2

[6] = test system: all seven human 14-3-3 isoforms; assay: Fluorescence polarization (FP) direct binding assay, statements over all isoforms; conditions: FP direct binding; all seven isoforms; fluorescein-labeled peptide 1 nM; FP buffer pH 7
Procedure: as §1, §2

[7] = target: T4, human 14-3-3 isoform β (recombinant, …); assay: fluorescence polarisation; direct binding; dilution series of 14-3-3 isoform (at least 5 μM down to picomolar) mixed with 1 nM fluorescein-labelled peptide; 20 mM MOPS pH 7, 150 mM NaCl, 0.005% CHAPS; 384-well plates; conditions: both partners purified
[8] = target: T5, human 14-3-3 isoform ε (recombinant, …); assay: as above; conditions: both partners purified
[9] = target: T6, human 14-3-3 isoform ζ (recombinant, …); assay: as above; conditions: both partners purified
[10] = target: T7, human 14-3-3 isoform η (recombinant, …); assay: as above; conditions: both partners purified
[11] = target: T8, human 14-3-3 isoform θ (recombinant, …); assay: as above; conditions: both partners purified
[12] = target: T9, human 14-3-3 isoform σ (recombinant, …); assay: as above; conditions: both partners purified

Binding to 14-3-3 isoform θ, in words [2] | Binding to 14-3-3 isoform σ, in words [3] | Binding to 14-3-3 isoform ϵ, in words [4] | Kd [7] | Kd [8] | Kd [9] | Kd [10] | Kd [11] | Kd [12] | Molecule | Binding to 14-3-3 isoform η, in words [1] | Binding to 14-3-3γ, in words [5] | Binding to the human 14-3-3 isoforms, in words [6]
weakest binding | No binding | No binding |  |  |  |  |  |  | SFLVKKKSNpSISVGEFYRD [pS910, fluorescein-labeled LRRK2-derived phosphopeptide covering pS910] | highest affinities, yet in a micromolar range | micromolar binding affinity; also recorded: highest affinities, yet in a micromolar range | micromolar affinities for the 14-3-3 isoforms except σ and ϵ; also recorded: low affinity
 |  |  | 21.1 nM | 12.4 nM | 4.8 nM | 4.8 nM | 9.5 nM | 60.6 nM | fluorescein-KKSN[pS]ISVGEFYRDAVLQRCSPNLQRHSN[pS]LGPIF (LRRK2-derived 35-mer covering S910 and S935, phosphorylated at both; source: synthetic peptide (Peps4LS GmbH)) [pS910/pS935] |  |  | 
 |  |  | 29.5 nM | 48.5 nM | 23.9 nM | 13.3 nM | 73.1 nM | 350 nM | fluorescein-RCSPNLRRHSN[pS]LGPIFDH (LRRK2-derived peptide with the possible pathogenic mutation Q930R, phosphorylated at S935; source: synthetic peptide (Peps4LS GmbH)) [Q930R/pS935] |  |  | 

Reference: publication PMC7155755, “Binding of the Human 14-3-3 Isoforms to Distinct Sites in the Leucine-Rich Repeat Kinase 2” (Frontiers in Neuroscience, 2020)
